Measured values reported in publication PMC6546359.

T1: CsrA-Strep (Bacillus subtilis, UniProt P33911 1-74)
T1 sequence: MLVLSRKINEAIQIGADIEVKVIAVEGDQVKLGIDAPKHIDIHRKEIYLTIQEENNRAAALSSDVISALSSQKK

B1: RnaC (structured_RNA)
RNA: UAAGGCCGGCGCGAUACUCCCUAUAACAUCCUUUUCAGUAGAUUUCAUUAUCGUGCCGGUUUUCUCAUAUGCAAAGCAAUCCCGCCAAUCAGAUUGGCGGGGAUUUUAUAUUU
B2: RoxS (structured_RNA)
RNA: GUGAAAUUGAUCACAAACAAACAUUACCCCUUUGUUUGACCGUGAAAAUUUCUCCCAUCCCCUUUGUUGUCGUUAAGACAUAUGAAACCGCGCUUAUCCCGGCGCGGUUUCUUU
B3: FsrA (structured_RNA)
RNA: AUAGAGAGAAGCUACUCUCUGUUCCCCAACCCCUCUAUCAGAUCAAGAUCCGGAAAAAACUUGGCGCUACCCCCGCCAAGUUUUU

biological target: T1, CsrA-Strep; experiment: EMSA

Binding result, no binding:
B1
B2
B3
